Data from publication PMC10901376 (Science Advances, 2024).

Target: the molecule itself
Assay: cryo-EM structure

B1: S. aureus TarL H300N (enzyme, UniProt Q2G1B8 1-562, looked up)
chain: MVKSKIYIDKIYWERVQLFVEGHSENLDLEDSNFVLRNLTETRTMKANDVKIDGNQFVCRFNVAILDNGYYLPEDKYLLVNEQELDYIAQLNPDVINDAYQNLKPEQEEEYNELETQNGKINFLLQTYLKEFRKGGISKKTVYTVTPEISSDVNEFVLDVVVTTPEVKSIYIVRKYKELRKYFRKQSFNTRQFIFKAIFNTTKFFHLKKGNTVLFTSDSRPTMSGNFEYIYNEMLRQNLDKKYDIHTVFKANITDRRGIIDKFRLPYLLGKADYIFVDDFHPLIYTVRFRRSQEVIQVWNAVGAFKTVGFSRTGKKGGPFIDSLNHRSYTKAYVSSETDIPFYAEAFGIKEKNVVPTGVPRTDVLFDEAYATQIKQEMEDELPIIKGKKVILFAPTFRGSGHGTAHYPFFKIDFERLARYCEKNNAVVLFKMHPFVKNRLNIADKHKQYFVDVSDFREVNDILFITDLLISDYSSLIYEYAVFKKPMIFYAFDLEDYITTRDFYEPYESFVPGKIVQSFDALMDALDNEDYEGEKVIPFLDKHFKYQDGRSSERLVRNLFGS
stoichiometry N: 4
